# B1: PRPH (parent)
# chain: RTFGPPPSLSPGAFSYSSSSRFSS
# Variants of: B1
# Assay: protein stability index of a GFP-peptide fusion (GPS, HEK-293T) (PSI 1-6); higher = more stable
# Conditions: c terminus: a fixed tail appended
# 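Further: lentivirally expressed fusions sorted by FACS into six bins by GFP to DsRed ratio, PSI derived from sequencing read proportions per bin multiplied by bin number.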
row,Variant,protein stability index
1,RTFGPPPSLSPGAFSYSSYSRFSS,2.38
2,RTFGPPPSLSPGAFSYSSKSRFSS,3.7
3,RTFGPPPSLSPGAFSYSSCSRFSS,2.66
4,RTFGPPPSLSPGAFSYSSESRFSS,3.55
5,RTFGPPPSLSPGAFSYSSLSRFSS,2.93
6,RTFGPPPSLSPGAFSYSSNSRFSS,3.46
7,RTFGPPPSLSPGAFSYSSHSRFSS,2.81
8,RTFGPPPSLSPGAFSYSSFSRFSS,2.38
9,RTFGPPPSLSPGAFSYSSASRFSS,3.08
10,RTFGPPPSLSPGAFSYSSPSRFSS,3.12
11,RTFGPPPSLSPGAFSYSSMSRFSS,2.26
12,RTFGPPPSLSPGAFSYSSTSRFSS,3.23
13,RTFGPPPSLSPGAFSYSSGSRFSS,3.46
14,RTFGPPPSLSPGAFSYSSWSRFSS,2.19
15,RTFGPPPSLSPGAFSYSSVSRFSS,3.63
16,RTFGPPPSLSPGAFSYSSISRFSS,2.45
17,RTFGPPPSLSPGAFSYSSRSRFSS,3.5
18,RTFGPPPSLSPGAFSYSSQSRFSS,2.66
19,RTFGPPPSLSPGAFSTSSSSRFSS,3.64
20,RTFGPPPSLSPGAFSHSSSSRFSS,4.04
21,RTFGPPPSLSPGAFSWSSSSRFSS,3.36
22,RTFGPPPSLSPGAFSQSSSSRFSS,3.62
23,RTFGPPPSLSPGAFSESSSSRFSS,3.98
24,RTFGPPPSLSPGAFSLSSSSRFSS,3.95

row,Variant,protein stability index
1,RTFGPPPSLSPGAFSISSSSRFSS,3.31
2,RTFGPPPSLSPGAFSCSSSSRFSS,3.18
3,RTFGPPPSLSPGAFSVSSSSRFSS,3.69
4,RTFGPPPSLSPGAFSASSSSRFSS,3.81
5,RTFGPPPSLSPGAFSSSSSSRFSS,3.86
6,RTFGPPPSLSPGAFSGSSSSRFSS,4.28
7,RTFGPPPSLSPGAFSKSSSSRFSS,3.66
8,RTFGPPPSLSPGAFSDSSSSRFSS,3.9
9,RTFGPPPSLSPGAFSFSSSSRFSS,2.99
10,RTFGPPPSLSPGAFSPSSSSRFSS,4.1
11,RTFGPPPSLSPGAFSRSSSSRFSS,3.92
12,RTFGPPPSLSPGAWSYSSSSRFSS,3.22
13,RTFGPPPSLSPGAQSYSSSSRFSS,4.01
14,RTFGPPPSLSPGAESYSSSSRFSS,4.21
15,RTFGPPPSLSPGAYSYSSSSRFSS,2.87
16,RTFGPPPSLSPGANSYSSSSRFSS,4.03
17,RTFGPPPSLSPGAMSYSSSSRFSS,3.28
18,RTFGPPPSLSPGACSYSSSSRFSS,3.09
19,RTFGPPPSLSPGATSYSSSSRFSS,4.16
20,RTFGPPPSLSPGAASYSSSSRFSS,3.53
21,RTFGPPPSLSPGARSYSSSSRFSS,4.11
22,RTFGPPPSLSPGAHSYSSSSRFSS,3.7
23,RTFGPPPSLSPGAVSYSSSSRFSS,3.52
24,RTFGPPPSLSPGAKSYSSSSRFSS,4.23

row,Variant,protein stability index
1,RTFGPPPSLSPGALSYSSSSRFSS,3.4
2,RTFGPPPSLSPGAGSYSSSSRFSS,3.3
3,RTFGPPPSLSPGAISYSSSSRFSS,3.17
4,RTFGPPPSLSPGQFSYSSSSRFSS,3.62
5,RTFGPPPSLSPGLFSYSSSSRFSS,3.18
6,RTFGPPPSLSPGFFSYSSSSRFSS,2.98
7,RTFGPPPSLSPGYFSYSSSSRFSS,3.14
8,RTFGPPPSLSPGNFSYSSSSRFSS,3.94
9,RTFGPPPSLSPGSFSYSSSSRFSS,2.73
10,RTFGPPPSLSPGTFSYSSSSRFSS,3.45
11,RTFGPPPSLSPGGFSYSSSSRFSS,3.21
12,RTFGPPPSLSPGWFSYSSSSRFSS,2.79
13,RTFGPPPSLSPGEFSYSSSSRFSS,3.51
14,RTFGPPPSLSPGKFSYSSSSRFSS,3.42
15,RTFGPPPSLSPGHFSYSSSSRFSS,3.05
16,RTFGPPPSLSPGCFSYSSSSRFSS,2.86
17,RTFGPPPSLSPGRFSYSSSSRFSS,3.01
18,RTFGPPPSLSPGVFSYSSSSRFSS,2.94
19,RTFGPPPSLSPGPFSYSSSSRFSS,3.21
20,RTFGPPPSLSPGIFSYSSSSRFSS,3.33
21,RTFGPPPSLSPGMFSYSSSSRFSS,3.29
22,RTFGPPPSLSPGDFSYSSSSRFSS,3.5
23,RTFGPPPSLSPGAFSYSGSSRFSS,3.38
24,RTFGPPPSLSPGAFSYSESSRFSS,3.57

row,Variant,protein stability index
1,RTFGPPPSLSPGAFSYSRSSRFSS,3.38
2,RTFGPPPSLSPGAFSYSDSSRFSS,2.94
3,RTFGPPPSLSPGAFSYSLSSRFSS,2.59
4,RTFGPPPSLSPGAFSYSKSSRFSS,3.9
5,RTFGPPPSLSPGAFSYSISSRFSS,2.66
6,RTFGPPPSLSPGAFSYSQSSRFSS,3.5
7,RTFGPPPSLSPGAFSYSWSSRFSS,2.77
8,RTFGPPPSLSPGAFSYSCSSRFSS,3.5
9,RTFGPPPSLSPGAFSYSHSSRFSS,2.8
10,RTFGPPPSLSPGAFSYSVSSRFSS,3.24
11,RTFGPPPSLSPGAFSYSFSSRFSS,2.45
12,RTFGPPPSLSPGAFSYSASSRFSS,2.76
13,RTFGPPPSLSPGAFSYSNSSRFSS,3.22
14,RTFGPPPSLSPGAFSYSTSSRFSS,3.25
15,RTFGPPPSLSPGAFSYSPSSRFSS,2.93
16,RTFGPPPSLSPGAFSYSYSSRFSS,2.98
17,RTFGPPPSLSPGAFSYSMSSRFSS,2.75
18,RTFGPPPSLSPGAFSYSSSSGFSS,2.85
19,RTFGPPPSLSPGAFSYSSSSNFSS,3.03
20,RTFGPPPSLSPGAFSYSSSSVFSS,3.1
21,RTFGPPPSLSPGAFSYSSSSSFSS,3.02
22,RTFGPPPSLSPGAFSYSSSSAFSS,2.46
23,RTFGPPPSLSPGAFSYSSSSTFSS,3.18
24,RTFGPPPSLSPGAFSYSSSSEFSS,3.22

row,Variant,protein stability index
1,RTFGPPPSLSPGAFSYSSSSPFSS,3.25
2,RTFGPPPSLSPGAFSYSSSSIFSS,2.44
3,RTFGPPPSLSPGAFSYSSSSKFSS,3.5
4,RTFGPPPSLSPGAFSYSSSSQFSS,3.23
5,RTFGPPPSLSPGAFSYSSSSCFSS,3.19
6,RTFGPPPSLSPGAFSYSSSSYFSS,2.08
7,RTFGPPPSLSPGAFSYSSSSDFSS,3.3
8,RTFGPPPSLSPGAFSYSSSSFFSS,2.25
9,RTFGPPPSLSPGAFSYSSSSMFSS,2.8
10,RTFGPPPSLSPGAFSYSSSSHFSS,3.48
11,RTFGPPPSLSPGAFSYSSSSWFSS,1.75
12,RTFGPPPSLSPGAFSYSSSSLFSS,2.56
13,RTFGPPPSLSPGAFYYSSSSRFSS,2.56
14,RTFGPPPSLSPGAFAYSSSSRFSS,3.27
15,RTFGPPPSLSPGAFDYSSSSRFSS,3.49
16,RTFGPPPSLSPGAFFYSSSSRFSS,2.43
17,RTFGPPPSLSPGAFHYSSSSRFSS,2.85
18,RTFGPPPSLSPGAFKYSSSSRFSS,3.29
19,RTFGPPPSLSPGAFLYSSSSRFSS,2.62
20,RTFGPPPSLSPGAFEYSSSSRFSS,3.22
21,RTFGPPPSLSPGAFWYSSSSRFSS,2.31
22,RTFGPPPSLSPGAFMYSSSSRFSS,2.65
23,RTFGPPPSLSPGAFNYSSSSRFSS,3.37
24,RTFGPPPSLSPGAFCYSSSSRFSS,2.33

row,Variant,protein stability index
1,RTFGPPPSLSPGAFIYSSSSRFSS,2.95
2,RTFGPPPSLSPGAFQYSSSSRFSS,3.18
3,RTFGPPPSLSPGAFRYSSSSRFSS,2.33
4,RTFGPPPSLSPGAFGYSSSSRFSS,3.64
5,RTFGPPPSLSPGAFVYSSSSRFSS,2.74
6,RTFGPPPSLSPGAFPYSSSSRFSS,3.03
7,RTFGPPPSLSPGAFTYSSSSRFSS,3.48
8,RTFGPPPSLSPGAFSYSSSSRSSS,4.18
9,RTFGPPPSLSPGAFSYSSSSRQSS,3.78
10,RTFGPPPSLSPGAFSYSSSSRNSS,3.44
11,RTFGPPPSLSPGAFSYSSSSRESS,4.03
12,RTFGPPPSLSPGAFSYSSSSRPSS,3.27
13,RTFGPPPSLSPGAFSYSSSSRCSS,3.82
14,RTFGPPPSLSPGAFSYSSSSRDSS,3.94
15,RTFGPPPSLSPGAFSYSSSSRKSS,4.21
16,RTFGPPPSLSPGAFSYSSSSRMSS,3.73
17,RTFGPPPSLSPGAFSYSSSSRISS,3.81
18,RTFGPPPSLSPGAFSYSSSSRLSS,3.72
19,RTFGPPPSLSPGAFSYSSSSRHSS,3.55
20,RTFGPPPSLSPGAFSYSSSSRASS,3.4
21,RTFGPPPSLSPGAFSYSSSSRGSS,4.16
22,RTFGPPPSLSPGAFSYSSSHRFSS,2.96
23,RTFGPPPSLSPGAFSYSSSDRFSS,3.23
24,RTFGPPPSLSPGAFSYSSSRRFSS,3.41

row,Variant,protein stability index
1,RTFGPPPSLSPGAFSYSSSCRFSS,2.33
2,RTFGPPPSLSPGAFSYSSSFRFSS,2.35
3,RTFGPPPSLSPGAFSYSSSIRFSS,2.43
4,RTFGPPPSLSPGAFSYSSSERFSS,2.76
5,RTFGPPPSLSPGAFSYSSSWRFSS,2.09
6,RTFGPPPSLSPGAFSYSSSKRFSS,3.81
7,RTFGPPPSLSPGAFSYSSSLRFSS,2.48
8,RTFGPPPSLSPGAFSYSSSARFSS,3.71
9,RTFGPPPSLSPGAFSYSSSVRFSS,2.86
10,RTFGPPPSLSPGAFSYSSSQRFSS,3.57
11,RTFGPPPSLSPGAFSYSSSTRFSS,2.94
12,RTFGPPPSLSPGAFSYSSSGRFSS,2.99
13,RTFGPPPSLSPGAFSYSSSNRFSS,3.31
14,RTFGPPPSLSPGAFSYSSSMRFSS,3.05
15,RTFGPPPSLSPGAFSYSSSYRFSS,2.74
16,RTFGPPPSLSPGAFSYSSSPRFSS,3.45
17,RTFGPPPSLSPRAFSYSSSSRFSS,3.35
18,RTFGPPPSLSPYAFSYSSSSRFSS,2.93
19,RTFGPPPSLSPSAFSYSSSSRFSS,3.42
20,RTFGPPPSLSPVAFSYSSSSRFSS,3.36
21,RTFGPPPSLSPKAFSYSSSSRFSS,3.21
22,RTFGPPPSLSPIAFSYSSSSRFSS,3.05
23,RTFGPPPSLSPLAFSYSSSSRFSS,2.47
24,RTFGPPPSLSPTAFSYSSSSRFSS,3.31

row,Variant,protein stability index
1,RTFGPPPSLSPNAFSYSSSSRFSS,3.14
2,RTFGPPPSLSPMAFSYSSSSRFSS,2.89
3,RTFGPPPSLSPWAFSYSSSSRFSS,2.25
4,RTFGPPPSLSPGAFSYYSSSRFSS,3.07
5,RTFGPPPSLSPGAFSYKSSSRFSS,3.04
6,RTFGPPPSLSPGAFSYWSSSRFSS,2.27
7,RTFGPPPSLSPGAFSYPSSSRFSS,3.16
8,RTFGPPPSLSPGAFSYLSSSRFSS,2.53
9,RTFGPPPSLSPGAFSYNSSSRFSS,3.71
10,RTFGPPPSLSPGAFSYHSSSRFSS,2.54
11,RTFGPPPSLSPGAFSYESSSRFSS,3.59
12,RTFGPPPSLSPGAFSYVSSSRFSS,2.75
13,RTFGPPPSLSPGAFSYCSSSRFSS,2.85
14,RTFGPPPSLSPGAFSYTSSSRFSS,3.19
15,RTFGPPPSLSPGAFSYASSSRFSS,3.02
16,RTFGPPPSLSPGAFSYRSSSRFSS,2.99
17,RTFGPPPSLSPGAFSYDSSSRFSS,3.06
18,RTFGPPPSLSPGAFSYQSSSRFSS,3.1
19,RTFGPPPSLSPGAFSYISSSRFSS,2.55
20,RTFGPPPSLSPGAFSYFSSSRFSS,2.37

# From the supplement of paper PMC10567573
